From the nanobody polyreactivity screen of Harvey et al. (2022)

Assay: yeast display, Sf9 membrane polyspecificity reagent, FACS + sequencing; frameworks hold sequencing errors
Summary of the method: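 Nanobodies came from a synthetic yeast display library in Saccharomyces cerevisiae BJ5465, induced with galactose for 36–48 hours and stained for 1 hour at 4 °C with 10% biotinylated, detergent-solubilized Sf9 membrane reagent. Cells were enriched on streptavidin microbeads and then FACS-sorted, with low and high (top ~1%) gates set on anti-HA fluorescence for expression and streptavidin fluorescence for reagent binding. Each polyreactivity label reflects the gate a clone came from. Genes were amplified by colony PCR, sequenced by MiSeq 2 × 250 and filtered by CDR length.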

Sequence	polyreactivity (PSR sort gate)
QVQLVESGGGLVQAGGSLRLSCAASGFIFTTNAMGWYRQAPGKERELVAAITRSGGSTYADSVKGRFTISRDNAKNTVYLQMNSLKPEDTAVYYCNADWAGVYTSYEYDYWGQGTQVTVSS	low polyreactivity
QVQLVESGGGLVQAGGSHRLSCAASGRIFTYYAMGWYRQAPGKQREFVAAITYRGGRTYYADSVKGRFTISRDNAKNTVYLQLNSLNPEDTAVYYCNVAPYGYWPRYYPWRELDYWGQGTQVTVSS	high polyreactivity
QVQLVESGGGLVQAGGSLRLSCAASGSTFLYYAMGWYRQAPGKERELVAVISWSGVSTYYADSVKGRFTISRDNAKNTVYLQMNSLKPEDTAVYYCNTGNHYIRTYGYWGQGSQVTVSS	low polyreactivity
QVQLVESGGGLVQAGCSLRLSCAASGSIFGYNDMGWNRQAPGKERELVATITWGGGRTRYADSVKGRFTISRDNAKNTVYLQINCLKPEDIAVYYCAADKRSYSYVRPPRNHEDYWGQGSQVTVSS	low polyreactivity
QVQLQESGGGLVQAGGSLRLSCAASGLILARNYMGWYRQAPGTERELVSGIGVGASTNYADSVKGRFTISRDNAKNTVYLQMNSLEPEDTAVYYCAVGDTVLGYHYYWGQGTQVTVSN	low polyreactivity
QVQLVESGGGLVQAGGSLRLSCAASGITFRKYVMGWYRPAPGKERELVAAITRGGSTNYADSVKGRFTISRDNAKNTVYLQMNSLKPEDTAVYYCATRQSWYPRWMDYWGQGTQVTVSS	high polyreactivity
QVQLVESGGGLVQAGGSLRLSCAASGRIFFGNAMGWYRLAPGKEREFVAAITWRGGNTYYADSVKGRFTISRDNAKNTVYLQMNSLKPEDTAVYDCNASPSEVRRRYDYWGQGTQVTVSS	high polyreactivity
QVQLVESGGGLVQAGGSLRLSCAASGRIFLGNVMGWYRQAPGKERELVAAISSGGSTNYADSVKGRFTISRDNAKNTVYLQMNSLIPEDTAVYYCAAYFVRDWKLYYYWGQGTQVTVSS	low polyreactivity
QDQLVESGGCLVQAGGSLRLSCAASGSTFGYNVMGRYRQAPGKERELVAAISSSGGSTYYADSVKGRFSISRDNAKNTVYLQMNSLKPEDTAVYYCARSTYPYRYGYWGQGTQVTVSS	high polyreactivity
QVQLVESWGGLVQAGGTLRLSCAPSGYIFYFNDMGCYIQAPGKERELVAAITWSGTGTYYADSVKGRFTISRDNAKNTVYLQMNSLKPEDTAVYYCAAREWTSQDRQHNYWGQGTQVTVSS	low polyreactivity
QVQLVESGGGLVQAGGSLSLSCAASGSILAVYTMGWYRQAPGTVRELVAAITVSSGRTYYADSVKGRFTISRDNAKNTVYLQMNSLKPEDTSVYYCAALYWRSKLRPYEYWGQGTQVTVSS	high polyreactivity
QVQLVESGGGLVQAGGSLRLSCAASGRIFEINTMGWYRQAPGKERELVAAISRGGGSTYYADSVKGRFTISRDNAKNTVYLQMNSLKPEDTAVYYCAAASYYVEGDYWGQGTQVTVSS	low polyreactivity
QVQLVESGGGLVQAGGSLRLSCAASGSTFRPYTMGWYRQAPGKERELVAAINRRGSSTYYADSVKGRFTISRDNAKNTVYLQMNSLKPEDTAVYYCNAVPGSRYGTYDYWGQGTQVTVSS	high polyreactivity
QVQLVESGGGLVQAGGSLRLSCAASGIIFSSNAMGWYTQAPGKERELVAAISRRGGSTYYADSVKGRFTISRDNAKNSVYLQMNSLKPEDTAVYYCNALLYNGAGYDYWGQGTQVTVSS	high polyreactivity
QVQLVESGGGLVQAGGSLRLSCAASGFTFYYYAMGWYRQATGKERELVAAISSTGGSTYYADSVKGRFTISRDNAKNTVYLQMNSVKQEDSAVYYCNAAGYRYPGDYDYWGQGTQVTVSS	high polyreactivity
QDQLVDSGGGLVQAGGSLRLSCDASGIFDYYVMGWYRQAPGTERELVAAISKSVGSTYYADSVKGRFTISRDNAKNTVYLQMNSLKPEDTAVYYCAVENRYRFGYWGQGTQVTVSS	low polyreactivity
QVQLVESGGGLVQAGGSLRLTCAASGNTFGNYAMGWYRQAPGKERELVASISWNVGSTYYADSVKGRFTISRDNAKNTVYLQMNSLKPEDTAVYYCARGYDRPRVATFHRFDYWGQGTQVTVSS	low polyreactivity
QVQLVESGGGLVQAGCSLRLSCDASGSTFNWNAMGRYRQAPGKERELVAVIRRNGATTNYADSVKGRFTISRDNAKITVYLQMNSLKPEDTAVYYCAVAKWQPRRRKYYYWGQGTQVTVSS	high polyreactivity
QVQLVESGGGLVQAGGSLRLSCAASGFTFGLNAMGWYRQAPGKERELVAGISRNGGRTYYADSVKGRFTISRDNAKNTVYLQMNSLKPDDTAVYYCNKVVSTYWTKSRVQWRYSRYDYWGQGTQVTVSS	high polyreactivity
QVQLVESGVGLVQAGGSLRLSCAASGRIFRWYPMGWYRQAPGKERELVASITWNGGSTYYADSVKGRFTISRDNAKNTVYLQMKSLKPEDTAVYYCAVPFYRGPEMGYWGQGTQVTVSS	high polyreactivity
QVQLVESGGGVVQAGGSLRLSCAASGRTFPYYTMGWYRQAPGKERELVAAITRSGDSTYYADSVKGRFTISRDNAKNTVYLQMYSLKPEDTAVYYCAADIWSSDYEEFYYWGLGTQVTVSS	low polyreactivity
QVQLVESGGGLVQAGGSLRLSCAASGSTFFRYAMGWYRQAPGKEREFVAAITSSGGNTYYADSVKGRFTISRDNAKNTVYLQMNSLKPEDTAVYYCAAVWYSPYVKYNYWGQGTQVTVSS	low polyreactivity

Sequence	polyreactivity (PSR sort gate)
QVQLVESGGGLVQAGGSLRLSCAASGYTFLAYAMGWYRQAPGKERELVAAISSGGRTYYADSVKGRFTISRDNAKNTVYLQMHSLKREDTAVYYCAAYPLRYRQYWGFVYWGQGTQVTVSS	high polyreactivity
QDQLVESGGGLVQAGGSLRLSCAASGSIFDVNAMGWYRQAPGKERELVAAISDSGGSTYYADSVKGRFTISRDNAKNTVYLQMNSLKPEDTAVYYCNADWSWYNYYDFDYWGQGTQVTVSS	low polyreactivity
QVQLVESGAGLVQARGSLRLSCAASGYTFLGYAMGWYRQAPGKERELVAAINRSGSSTYYADSVKGRFTISRDNAKNTVYLQMNSLKPEDTAVYYCNARSGNRYGPRYDYWGQGTQVTVSS	high polyreactivity
QVQLVESGGGLVQAGGSLRLSCAASGSTRYYAMGWYRHAPGKERELVASITTIGGSTSYADSVKGRFTISRDNAKNTVYLQMNSLKPEDTAVYYCATRSLVYSARAAGLIQFDHWGQGTQVNVSS	low polyreactivity
QVQLVESGGGLVQAVGSLRLSCAASGSILVTYMGWYRPAPGKEREVVAAISYTGGSTYYADSVKGRFTISRDNAKNSVYLQMNSLKPEDTEVFYCASFYLASETYYYFYWPKDSDDYCGQGTQVTVSS	low polyreactivity
QVQLVESGGGLVQAGGSLRLSCAASGSIFYSYVMGWYRQAPGKERELVAAISRNGQSTYYADSVKGRFTISRDNAKNTVYLQMNSLKPEDTAVYYCATRGTKSIKDVPGIRYGYWGQGTQVTVSS	high polyreactivity
QVQLHESGGGLVQAGGSLRLSCAASGTISVTYNMGWYRQAPGKEREFVAGNSTGATTNYADSVKGRFTISRDNAKKTVYLQMNSLKPEDTAVYYCAAHIYRQDHFYYWGQGTQVTVSS	low polyreactivity
QVQLVESGGGLVQAGGSLRLSCAASGSTFLYYGMGWYRQSPGYERELVATITWRGGRTYYADSVKGRYTISRDNAKNTVYLQMNSLKPEDTAVYYCARVRLTTYGYYSWGQGTQVTVSS	high polyreactivity
QVQLVESGGGLVQAGGSLRLSCAASGFTFGFYAMGWYRQAPGEEWELVATISSAGSTTYADSVKGRFTLSRDNAKHTVYLQMNSLKPEETAVYYCATRRWSWPQFRTGDYWGQGTQVTVSS	high polyreactivity
QVHLVESGGGLVQAGGSLRLSCAASGIISGGNAMGWYRQAPGKDRELVASINSGGSTNYADSVKGRFTISRDNALNSLYLKMNSLKPDDTAVYYGAGDYIDSTAYDYWGQGTKVTVSS	low polyreactivity
QVQLVESGGGLVQARGSLRLSCAASGSIFDDYAMGWYRQAPGKERELVAAISSSGTSTYYADSVKGRFTISRDNAKNTVYLQLNSLKPEDTAVYYCAARSAILKSGYLMEYWGEGTQVTVSS	low polyreactivity
QVQLVESGGGLVQAGGSLRLSCAASGSTFKPYAMGWYRQAPGKERELVAAITWSSGSTYYADSVKGRFTISRDNAKNTVYLQMNSLKPEDTAVYYCARDRYSVFEYDYWGQGTQVTVSS	low polyreactivity
QVQLVESGGGLVQAGGSLRLSCAASGRIFYYNAMGWYRQAPGKERELVAAISTRGTSTYYADSVKGRFTISRDNAKNTVYLQMNSLKPEDTAVYYCNRASGNWQSYLRYDYWGQGTQVTVSS	low polyreactivity
QVQLVESGGGLVQAGGSLRLSCAASGITFTAYAMGWYRQAPGKERELVATINSTGITNYADSVKGRFTISRDNAKNTVYLQMNSLNPEDTAVYYCAADLLDISSYDGMDYWGQGTQVTVSS	low polyreactivity
QVQLVESGGGLVQAGGSLRLSCAASGSTFQGYSMGWYRPAPGKERELVAAISGSGGNTYYADSVKGRFTISRDNAKNTVYLQMNSLKPEDTAVYYCAAGHVRTDWRYGYWGQGTQVTVSS	low polyreactivity
QVQLVESGGGLVQAGGSLRLSCAASRGIFGYNAMGWYRQAPGKERELVARISSSGGSTYYADSVKGRFTISRDNAKNTVYLQMNSLKPEDTAVYYCNTASNRYPGWRAEFDYWGQGTQVTVSS	low polyreactivity
QVQLVESGGLIVQAGRSIRLTCAASGSIFYSYPMGWYRQAPGKERELVAAIRFSRGTTYYADSVKGRFTISRDNAKNTVYLQMNSLKPEDTAVYYCAATLSSYSYLFEYDYWGQCTQVTVSS	low polyreactivity
QDQLVESGGGLVQAGGSLRLSCAASGYTFPSYAMGWYRQAPGKEREFVAAIDSSGGSTNYADSVKGRFTISRDNAKNTVYLQMNSLKPEETAVYYCAREYSSGYWVRHLFYYWGQGTKVTVSS	low polyreactivity
QVQLVESGGGLVQAGGSLRLSSAASGRTLAGYAMGWYRQAPGKERELVAAISRSGGRTYYADSVKGRFTISRDNAKNSVYLQMNSLKPEDTAVYYCAADTRIEVYYWGQGTQVTVSS	high polyreactivity
QVQIVDSGGGLVQAGGSLRLSCAASGSTFKPYAMGWYRQAPGKERELVAAITFSGGSTYYADSVKGRFTISRDNAKNTVYLQMNSLKPEDTAVYDCAARAFKFNGYYYWGQGTQVTVSS	high polyreactivity
QVQLVESGGGLVQAGGSLRLSCAASGFTFGRYAMGWYRQAPGKERELLAGITWSGGSTSYADSVKGRFTISRDNAKNTVYFQMNSLKPEDTAVYYCATRARYTRVQGRRYAYDYWGQGTQVTVSS	high polyreactivity
